# Bridge positions count the residues as written; N and C are the ends. Ends that are not written are not given here. COCH2 = acetyl group that carries the bridge
# Target: T1, Recombinant Human FGFR2 alpha (IIIc) Fc Chimera Protein, CF (R&D systems, 712-FR-050) (human, UniProt P21802 22-377)
# T1 construct: bought; not shown: Fc part of the chimera
# Assay: ELISA on plate-bound FGFR2-Fc
# Procedure, shortened: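 Peptide binding scored by category from dose-response of background-corrected luminescence (FGFR-coated minus uncoated wells). Detection via anti-Myc antibody (2 h, room temperature) after 3 h peptide incubation on wells coated with 5 ng FGFR2 alpha (IIIc)-Fc.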
# T1 sequence (P21802 22-377, change not shown): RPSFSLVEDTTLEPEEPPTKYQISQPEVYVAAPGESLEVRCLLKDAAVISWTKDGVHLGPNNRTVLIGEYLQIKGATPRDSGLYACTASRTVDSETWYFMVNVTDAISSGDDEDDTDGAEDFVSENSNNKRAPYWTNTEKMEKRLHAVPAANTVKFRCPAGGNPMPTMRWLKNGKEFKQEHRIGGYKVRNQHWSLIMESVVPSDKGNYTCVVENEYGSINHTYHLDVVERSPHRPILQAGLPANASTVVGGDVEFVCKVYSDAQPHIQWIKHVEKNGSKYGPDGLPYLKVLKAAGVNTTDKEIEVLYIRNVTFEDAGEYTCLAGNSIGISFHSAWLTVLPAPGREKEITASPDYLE
row,Binder,"ELISA luminescence signal at 10 nmol/L peptide, relative to SEQ ID NO: 47 (=1) [ratio]"
1,YCEENYLDPEQYQYFIEFK(COCH2)Y (thioether 2-19 (inferred)) [cyclic peptide SEQ ID NO: 303],≥ 0.7
2,YCEENYLDPKQYQYFIYFK(COCH2)Y (thioether 2-19; not fully specified; printed as Y-(C)-EENYLDPKQYQYFIYF-(K(acetyl))-Y) [cyclic peptide SEQ ID NO: 342],≥ 0.7
3,YCEENYLDPEQYQYFIYFK(COCH2)Q (thioether 2-19 (inferred)) [cyclic peptide SEQ ID NO: 315],≥ 0.7
4,YCEENYKDPEQYQYFIYFK(COCH2)Y (thioether 2-19; not fully specified; printed as Y-(C)-EENYKDPEQYQYFIYF-(K(acetyl))-Y) [cyclic peptide SEQ ID NO: 339],≥ 0.7
5,YCEENYLDPEQYQYFIYFK(COCH2)N (thioether 2-19 (inferred)) [cyclic peptide SEQ ID NO: 314],≥ 0.7
6,YCEENYLDKEQYQYFIYFK(COCH2)Y (thioether 2-19; not fully specified; printed as Y-(C)-EENYLDKEQYQYFIYF-(K(acetyl))-Y) [cyclic peptide SEQ ID NO: 341],≥ 0.7
7,YCEENYLDPEQYQYFIYYK(COCH2)Y (thioether 2-19 (inferred)) [cyclic peptide SEQ ID NO: 306],≥ 0.7
8,YCEENYLKPEQYQYFIYFK(COCH2)Y (thioether 2-19; not fully specified; printed as Y-(C)-EENYLKPEQYQYFIYF-(K(acetyl))-Y) [cyclic peptide SEQ ID NO: 340],0.1 to 0.5
9,YCEENYLDPEQYQYFIYFK(COCH2)R (thioether 2-19 (inferred)) [cyclic peptide SEQ ID NO: 320],≥ 0.7
10,YCEENYLDPEQYQYFIYFK(COCH2)V (thioether 2-19 (inferred)) [cyclic peptide SEQ ID NO: 311],≥ 0.7
11,YCEENYLDPEQYQYFIYFK(COCH2)H (thioether 2-19 (inferred)) [cyclic peptide SEQ ID NO: 321],≥ 0.7
12,YCEENYLDPEQYQYFIYFK(COCH2)L (thioether 2-19 (inferred)) [cyclic peptide SEQ ID NO: 309],≥ 0.7
13,YCEENYLDPEQYQYFIYFK(COCH2)D (thioether 2-19 (inferred)) [cyclic peptide SEQ ID NO: 318],≥ 0.7
14,KCEENYLDPEQYQYFIYFK(COCH2)Y (thioether 2-19; not fully specified; printed as K-(C)-EENYLDPEQYQYFIYF-(K(acetyl))-Y) [cyclic peptide SEQ ID NO: 335],≥ 0.7
15,YCEENYLDPEQYQYFIYFK(COCH2)E (thioether 2-19 (inferred)) [cyclic peptide SEQ ID NO: 319],≥ 0.7
16,YCEENYLDPEQYQYFIYFK(COCH2)I (thioether 2-19 (inferred)) [cyclic peptide SEQ ID NO: 310],≥ 0.7
17,YCEENYADPEQYQYFIYFK(COCH2)Y (thioether 2-19 (inferred)) [cyclic peptide SEQ ID NO: 327],0.1 to 0.5
18,YCEENYLDPEQYAYFIYFK(COCH2)Y (thioether 2-19) [cyclic peptide SEQ ID NO: 331],≥ 0.7
19,YCEENYLDPEQYQYFIYFK(COCH2)A (thioether 2-19) [cyclic peptide SEQ ID NO: 334],≥ 0.7
20,YCEANYLDPEQYQYFIYFK(COCH2)Y (thioether 2-19 (inferred)) [cyclic peptide SEQ ID NO: 324],≥ 0.7
21,YCEENYLDPEQYQYFAYFK(COCH2)Y (thioether 2-19) [cyclic peptide SEQ ID NO: 332],≥ 0.7

row,Binder,"ELISA luminescence signal at 10 nmol/L peptide, relative to SEQ ID NO: 47 (=1) [ratio]"
1,YCEENYLDPEQYQYFIYWK(COCH2)Y (thioether 2-19 (inferred)) [cyclic peptide SEQ ID NO: 307],≥ 0.7
2,YCEKNYLDPEQYQYFIYFK(COCH2)Y (thioether 2-19; not fully specified; printed as Y-(C)-EKNYLDPEQYQYFIYF-(K(acetyl))-Y) [cyclic peptide SEQ ID NO: 337],≥ 0.7
3,YCEENYLDPEQYKYFIYFK(COCH2)Y (thioether 2-19; not fully specified; printed as Y-(C)-EENYLDPEQYKYFIYF-(K(acetyl))-Y) [cyclic peptide SEQ ID NO: 343],≥ 0.7
4,YCEENYLDPEQYQYFIYFK(COCH2)T (thioether 2-19 (inferred)) [cyclic peptide SEQ ID NO: 317],≥ 0.7
5,YCEENYLDPEQYQYFIYFK(COCH2)S (thioether 2-19 (inferred)) [cyclic peptide SEQ ID NO: 316],≥ 0.7
6,YCEENYLDAEQYQYFIYFK(COCH2)Y (thioether 2-19 (inferred)) [cyclic peptide SEQ ID NO: 329],≥ 0.7
7,YCKENYLDPEQYQYFIYFK(COCH2)Y (thioether 2-19; not fully specified; printed as Y-(C)-KENYLDPEQYQYFIYF-(K(acetyl))-Y) [cyclic peptide SEQ ID NO: 336],≥ 0.7
8,YCEENYLDPEQYQYFIYFK(COCH2)F (thioether 2-19 (inferred)) [cyclic peptide SEQ ID NO: 312],≥ 0.7
9,YCEENALDPEQYQYFIYFK(COCH2)Y (thioether 2-19 (inferred)) [cyclic peptide SEQ ID NO: 326],0.1 to 0.5
10,YCEENYLAPEQYQYFIYFK(COCH2)Y (thioether 2-19 (inferred)) [cyclic peptide SEQ ID NO: 328],≥ 0.7
11,YCEENYLDPEQYQYFIRFK(COCH2)Y (thioether 2-19 (inferred)) [cyclic peptide SEQ ID NO: 304],≥ 0.7
12,YCEENYLDPEQYQYFIYFK(COCH2)W (thioether 2-19 (inferred)) [cyclic peptide SEQ ID NO: 313],≥ 0.7
13,ACEENYLDPEQYQYFIYFK(COCH2)Y (thioether 2-19 (inferred)) [cyclic peptide SEQ ID NO: 322],≥ 0.7
14,YCEENYLDPEQYQYFIHFK(COCH2)Y (thioether 2-19 (inferred)) [cyclic peptide SEQ ID NO: 305],≥ 0.7
15,YCEENYLDPAQYQYFIYFK(COCH2)Y (thioether 2-19 (inferred)) [cyclic peptide SEQ ID NO: 330],≥ 0.7
16,YCEENYLDPEQYQYFIYFK(COCH2)G (thioether 2-19 (inferred)) [cyclic peptide SEQ ID NO: 308],≥ 0.7
17,YCAENYLDPEQYQYFIYFK(COCH2)Y (thioether 2-19 (inferred)) [cyclic peptide SEQ ID NO: 323],≥ 0.7
18,YCEEAYLDPEQYQYFIYFK(COCH2)Y (thioether 2-19 (inferred)) [cyclic peptide SEQ ID NO: 325],0.1 to 0.5
19,YCEENKLDPEQYQYFIYFK(COCH2)Y (thioether 2-19; not fully specified; printed as Y-(C)-EENKLDPEQYQYFIYF-(K(acetyl))-Y) [cyclic peptide SEQ ID NO: 338],0.1 to 0.5
20,YCEENYLDPEQYQYFIAFK(COCH2)Y (thioether 2-19) [cyclic peptide SEQ ID NO: 333],≥ 0.7

# From patent publication US20260008815A1, “CYCLIC PEPTIDE OR SALT THEREOF, AND USES THEREOF” (FUJIFILM Corporation, priority 2023, published 2026)
